# According to patent publication US20250320468A1, “New Microbial Diamine Oxidase Derived from Yarrowia Lipolytica for the Degradation of Biogenic Amines” (UNIVERSITÄT HOHENHEIM, priority 2021, published 2025):
# “Also recorded” adds a separate entry of the source. Where two headings read alike, the source gives them in different places.
# T1: Yarrowia lipolytica PO1f diamine oxidase-1 (DAO-1), wild type, SEQ ID NO: 1 (Yarrowia lipolytica, UniProt Q6CGT2)
# T1 sequence (Q6CGT2 1-671): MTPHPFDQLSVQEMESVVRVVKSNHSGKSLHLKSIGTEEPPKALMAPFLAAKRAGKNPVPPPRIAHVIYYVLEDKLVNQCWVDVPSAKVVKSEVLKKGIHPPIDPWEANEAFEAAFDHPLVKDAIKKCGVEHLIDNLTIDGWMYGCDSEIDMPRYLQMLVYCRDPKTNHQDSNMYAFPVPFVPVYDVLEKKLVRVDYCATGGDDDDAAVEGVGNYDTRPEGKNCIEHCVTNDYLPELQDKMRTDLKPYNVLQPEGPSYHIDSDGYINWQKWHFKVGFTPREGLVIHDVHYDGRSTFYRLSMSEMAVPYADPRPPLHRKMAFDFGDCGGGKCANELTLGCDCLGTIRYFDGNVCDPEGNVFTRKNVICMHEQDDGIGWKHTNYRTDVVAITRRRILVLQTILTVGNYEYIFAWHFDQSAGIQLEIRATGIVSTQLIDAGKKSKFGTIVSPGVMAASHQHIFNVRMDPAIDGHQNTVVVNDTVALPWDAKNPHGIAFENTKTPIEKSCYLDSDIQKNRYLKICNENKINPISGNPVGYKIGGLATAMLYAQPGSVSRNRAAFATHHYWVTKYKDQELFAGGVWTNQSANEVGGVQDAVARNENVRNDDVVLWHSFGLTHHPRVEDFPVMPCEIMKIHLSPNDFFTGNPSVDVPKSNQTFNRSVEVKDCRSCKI
# B1: DAO-2: second putative DAO from Y. lipolytica PO1f (Uniprot: A0A371BXN9), gene dao-2 SEQ ID NO: 3 (protein, listed as Yarrowia lipolytica)
# chain: MHRLSQLATQTTAATITAGHPLDPLSPSEIEHAASIVKSQMRDSSPYRFNLITLIEPPKAELLAWEASPSSVAKPPRRAEVVLVVRGKKGVTEGRVCLTGSKVLSWSEIEGVQPILTVDDLQKVEEIVRQDPEVIKQCKLIGVDNMSQVYCDPWTIGYDERWGAERRLQQAFLYFRAHQDDSQYSHPLDFTPIYDATEQKVIFIDIPPVRRPLSKLKNSNFNPQDISKTTGYRDVKPIDVSQPEGVNFKMTGRIMEWQGFRFHVGFNYREGIVLSQISFNDHGNQRNMFHRLSLVEMVVPYGNPEHPHQRKHAFDLGEYGAGLMTNPLSLGCDCKGVIHYLDAHFSDAEGKPLTVPNAVCIHEEDNGLLFKHSDFRDEFQTSIVTRATKLILSQIFTAANYEYCVYWIFHQDGTIQLEIKLTGILNTFPCNPGEDLHGWGTEVYPGTNAHNHQHLFSLRIHPAIDSQLHPGNSVAMVDAERSPFPPGHPENLHGNGFRPKRTVFNNPIEAMTDYDGNTSRTWDFFNPKSINQYSKKPASYKLVSRECPPLLPQPGGLVWNRAGFARHHMHVVPYVDGQLYPAGRFVCQTSGKPSRGLPEWIEQCGEKANINDTDVVAYHTFGLTHFPAPEDFPLMPAEPMTLLLRPRNFFLQNPALDVPPSHARTTTEAQAASGAKVVSLTDKVSQLAFNKSCCSK
# B2: porcine DAO: DAO extracted from porcine kidney (Uniprot: Q9TRC7), prior-art comparator (protein, UniProt Q9TRC7 25-755, looked up)
# Diamine oxidase …: ERSPRTPGGKAGVFADLSAQELKAVHSFLWSQKELKLEPSGTLTMAKNSVFLIEMLLPKKQHVLKFLDKGHRRPVREARAVIFFGAQEQPNVTEFAVGPLPTPRYMRDLPPRPGHQVSWASRPISKAEYALLSHKLQEATQPLRQFFRRTTGSSFGDCHEQCLTFTDVAPRGLASGQRRTWFILQRQMPGYFLHPTGLELLVDHGSTNAQDWTVEQVWYNGKFYRSPEELAQKYNDGEVDVVILEDPLAKGKDGESLPEPALFSFYQPRGDFAVTMHGPHVVQPQGPRYSLEGNRVMYGGWSFAFRLRSSSGLQILDVHFGGERIAYEVSVQEAVALYGGHTPAGMQTKYIDVGWGLGSVTHELAPDIDCPETATFLDALHHYDADGPVLYPRALCLFEMPTGVPLRRHFNSNFSGGFNFYAGLKGQVLVLRTTSTVYNYDYIWDFIFYPNGVMEAKMHATGYVHATFYTPEGLRYGTRLHTHLIGNMHTHLVNYRVDLDVAGTTNSFQTLQMELENITNPWSPRHRLVQPTLKQTRYSRERQAAFRFGQPLPKYLLITSPKENPWGHTRSYRLQLHSMADQVLPPGWQEERAVTWARYPLAVTRYRESELSSSSIYNQNDPWDPPVVFEEFLRNNENIEDEDLVAWVTVGFLHIPHSEDIPNTATPGNSVGFLLRPFNFFPEDPALASRDLVVVWPLENGSTYAQRWIPEEDQSCLKPPPFSYNGSYRPV
# B3: human DAO: human diamine oxidase (Uniprot: P19801), prior-art comparator (protein, UniProt P19801 20-751, looked up)
# Diamine oxidase …: EPSPGTLPRKAGVFSDLSNQELKAVHSFLWSKKELRLQPSSTTTMAKNTVFLIEMLLPKKYHVLRFLDKGERHPVREARAVIFFGDQEHPNVTEFAVGPLPGPCYMRALSPRPGYQSSWASRPISTAEYALLYHTLQEATKPLHQFFLNTTGFSFQDCHDRCLAFTDVAPRGVASGQRRSWLIIQRYVEGYFLHPTGLELLVDHGSTDAGHWAVEQVWYNGKFYGSPEELARKYADGEVDVVVLEDPLPGGKGHDSTEEPPLFSSHKPRGDFPSPIHVSGPRLVQPHGPRFRLEGNAVLYGGWSFAFRLRSSSGLQVLNVHFGGERIAYEVSVQEAVALYGGHTPAGMQTKYLDVGWGLGSVTHELAPGIDCPETATFLDTFHYYDADDPVHYPRALCLFEMPTGVPLRRHFNSNFKGGFNFYAGLKGQVLVLRTTSTVYNYDYIWDFIFYPNGVMEAKMHATGYVHATFYTPEGLRHGTRLHTHLIGNIHTHLVHYRVDLDVAGTKNSFQTLQMKLENITNPWSPRHRVVQPTLEQTQYSWERQAAFRFKRKLPKYLLFTSPQENPWGHKRTYRLQIHSMADQVLPPGWQEEQAITWARYPLAVTKYRESELCSSSIYHQNDPWHPPVVFEQFLHNNENIENEDLVAWVTVGFLHIPHSEDIPNTATPGNSVGFLLRPFNFFPEDPSLASRDTVIVWPRDNGPNYVQRWIPEDRDCSMPPPFSYNGTYRPV
# What was measured:
# [1] = molecular target: T1, Yarrowia lipolytica PO1f diamine oxidase-1 (DAO-1), wild type, SEQ ID NO: 1
# Experimental: DAO-1 activity was determined with the DA-67 assay.
# The DAO-1 activity was determined using a colorimetric DA-67 enzyme assay. […] Subsequently, 12 μL (266 units/mL) of horseradish peroxidase (Grade I) were added. The reaction was started by the addition of 25 μL DAO solution and incubated at 37° C. for 10 min and stirred at 750 rpm. The reaction was stopped by the addition of 50 μL sodium diethyldithiocarbamate (30 mM). After centrifugation (10,000 g for 3 min at 20° C.), the absorption was measured at 668 nm. […] Hydrogen peroxide (0.5 to 10 nmol/mL) was used for the calibration. The enzyme activity was calculated in nkat, whereby 1 nkat converts 1 nmol substrate/s at 37° C.
# The DAO-1 activity was determined using the DA-67 assay. For unhydrolyzed conditions, the DA-67 reagent (50 μM) was prepared in SIF containing BSA, WPI, sodium-caseinate each at 35.6 g/L and 106.8 g/L sucrose (pH 6.8). […] The DAO-1 was desalted against SIF using PD MidiTrap G-25 columns.
# For the hydrolyzed conditions, BSA, WPI, sodium-caseinate each at 16.67 g/L and 50 g/L sucrose were first incubated in SIF (with pancreatin) at 37° C. and 130 rpm for 90 min. […]
# All experiments were done at least in duplicate and evaluated by determining the standard deviation with Excel. […] Enzyme kinetics were evaluated by nonlinear regression using the data analyzing software Sigmaplot 12.5 (Systat Software GmbH, Erkrath, Germany).
# [2] = system: Aspergillus niger amine oxidase; conditions: cited from earlier work
# [3] = system: human diamine oxidase (DAO); conditions: cited from earlier work
# [4] = molecular target: T1, Yarrowia lipolytica PO1f diamine oxidase-1 (DAO-1), wild type, SEQ ID NO: 1; assay: Michaelis-Menten kinetics of DAO-1 with histamine, DA-67 assay in PIPES buffer; format: biochemical; conditions: PIPES buffer (25 mM; pH 7.2), 37° C.
# Experimental: DAO-1 activity determined with the DA-67 assay in PIPES buffer (25 mM; pH 7.2) at 37° C.
# The DAO activity was determined using the colorimetric DA-67 enzyme assay, as known in the art. […] Subsequently, 24 μL (266 units/mL) of horseradish peroxidase (Grade I) were added. The reaction was started by the addition of 50 μL enzyme solution and incubated at 37° C. for 10 min and stirred at 750 rpm. The reaction was stopped by the addition of 50 μL sodium diethyldithiocarbamate (30 mM). After centrifugation (10,000 g for 3 min at 20° C.), the absorption was measured at 668 nm. […] Hydrogen peroxide (0.5 to 10 nmol/mL) was used for the calibration. The enzyme activity was calculated in nkat, whereby 1 nkat converts 1 nmol substrate/s at 37° C.
# Kinetic investigations were done within the initial reaction velocity.
# Data are presented as mean values with standard deviation. Enzyme kinetics were evaluated by nonlinear regression using the data analyzing software Sigmaplot 12.5 (Systat Software GmbH, Erkrath, Germany).
# [5] = system: porcine kidney diamine oxidase (DAO); conditions: cited from earlier work
# [6] = system: Arthrobacter crystallopoietes KAIT-B-007 histamine oxidase; conditions: cited from earlier work
# [7] = DAO activity of Y. lipolytica PO1f_axp_dao-2 cell extract versus wildtype extract; format: biochemical
# Experimental: (§1) The DAO activity was determined using the colorimetric DA-67 enzyme assay, as known in the art.
# (§2) Y. lipolytica PO1f was identified as the owner of two putative DAOs using the BLAST program (https://blast.ncbi.nlm.nih.gov). […] Both genes were amplified from the genome of the Y. lipolytica strain PO1f and successfully integrated into the axp locus of the genome (integration efficiency of around 20%), resulting in the recombinant strains Y. lipolytica PO1f_axp_dao-1 and Y. lipolytica PO1f_axp_dao-2. The genes were integrated into the axp locus because it allowed efficient expression of the proteins desired with the chosen strategy for homologous recombinant integration, as known in the art. Gene expression was thereby conducted using the strong, constitutive promoter UAS1B8_TEF (136).
# [8] = DAO activity of Y. lipolytica PO1f_axp_dao-2 cell extract versus wildtype extract, agmatine; format: biochemical
# Experimental: as §1, §2
# [9] = cited from earlier work
# [10] = kinetic studies from the art; cited from earlier work
# [11] = substrates at 1 mM; cited from earlier work
# [12] = cited from earlier work; for in vitro reduction of histamine: 150 mg/L (75 mg) histamine, 50 nkat (0.1 nkat/mL), 5 h
# [13] = extracted and partially purified from pig kidney (heat treatment, salt precipitation, HIC), cited from earlier work
# [14] = simulated intestinal fluid; cited from earlier work
# [15] = read-out: Ki (substrate inhibition by histamine)
molecule,measurement,setting,value
NCCc1c[nH]cn1 [histamine],substrate inhibition recognized for histamine concentrations,[1]; hydrolyzed food-matrix SIF 3,greater than 12.5 mM
same,substrate inhibition recognized for histamine concentrations,[1]; unhydrolyzed food-matrix SIF 3,greater than 12.5 mM
same,Km,[2],600 µM
same,Km,[3],2.8 µM
same,Ki,[3]; [15],280 µM
same,substrate inhibition recognized for histamine concentrations,[4],greater than 12.5 mM
same,Km,[5],27 µM
same,substrate inhibition by histamine concentrations,"[5]; porcine kidney DAO, 56 mg/L (0.5 mM)",> 0.5 mM
same,Ki,[5]; [15],5710 µM
same,Km,[6],500 µM
B1,enzyme activity towards histamine,[7]; recombinant Y. lipolytica PO1f_axp_dao-2 extract,no activity; also recorded: did not show enzyme activity
same,increase in DAO-activity versus wildtype cell extract,"[7]; substrates histamine, putrescine, cadaverine, tyramine, spermidine, tryptamine",did not show an increase
same,activity with agmatine,"[8]; cell extract, shaking flask",around 50 nkatAgmatine (14.5 mM)/LCulture
same,increase in activity versus wildtype cell extract,[8]; substrate agmatine,5.5 fold
B2,pH of maximal DAO activity,"[9]; cadaverine as substrate, potassium phosphate buffer",7.4
same,pH of maximal DAO activity,"[9]; histamine as substrate, potassium phosphate buffer",6.3
same,histamine concentration above which substrate inhibition occurs,[10],greater than 56 mg/L
same,DAO activity with histamine compared to the maximal measured activity with putrescine,[11],19%
same,in vitro reduction of histamine,[12],Around 90%
same,in vitro reduction of histamine,[12]; listed as free porcine DAO,about 90%
same,DAO activity required for the degradation of food-relevant histamine (75 mg),"[12]; within 5 h under in vitro conditions, about 90% reduction",50 nkat
same,specific DAO activity,[13],81 nkat/gProtein
same,specific DAO activity,[13]; listed as DAO from porcine kidney,81±1 nkat/gProtein
same,half-life,[14],approximately 19 minutes
B3,pH of maximal DAO activity,"[9]; putrescine as substrate, phosphate buffer, DAO from blood serum",7.5
